# Assay results taken from IntAct's records for PubMed 18242179.
# B1: Calcium/calmodulin-dependent protein kinase kinase 1 (Homo sapiens), Q8N5S9 (parent)
# chain: MEGGPAVCCQDPRAELVERVAAIDVTHLEEADGGPEPTRNGVDPPPRARAASVIPGSTSRLLPARPSLSARKLSLQERPAGSYLEAQAGPYATGPASHISPRAWRRPTIESHHVAISDAEDCVQLNQYKLQSEIGKGAYGVVRLAYNESEDRHYAMKVLSKKKLLKQYGFPRRPPPRGSQAAQGGPAKQLLPLERVYQEIAILKKLDHVNVVKLIEVLDDPAEDNLYLVFDLLRKGPVMEVPCDKPFSEEQARLYLRDVILGLEYLHCQKIVHRDIKPSNLLLGDDGHVKIADFGVSNQFEGNDAQLSSTAGTPAFMAPEAISDSGQSFSGKALDVWATGVTLYCFVYGKCPFIDDFILALHRKIKNEPVVFPEEPEISEELKDLILKMLDKNPETRIGVPDIKLHPWVTKNGEEPLPSEEEHCSVVEVTEEEVKNSVRLIPSWTTVILVKSMLRKRSFGNPFEPQARREERSMSAPGNLLVKEGFGEGGKSPELPGVQEDEAAS
# partner: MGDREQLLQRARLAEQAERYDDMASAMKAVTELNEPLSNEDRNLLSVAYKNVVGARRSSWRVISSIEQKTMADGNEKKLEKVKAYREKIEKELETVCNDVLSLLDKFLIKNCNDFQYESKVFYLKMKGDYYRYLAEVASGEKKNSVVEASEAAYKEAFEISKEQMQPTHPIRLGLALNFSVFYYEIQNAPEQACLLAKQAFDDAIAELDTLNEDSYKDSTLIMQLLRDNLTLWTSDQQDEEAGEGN
# Variants of: B1
# Settings: with 1433f_human YWHAH
row,Variant,effect of a mutation on the interaction
1,S52A;S74A;T108A;S475A,disrupting interaction

# Variants of: B1
# Settings: with 1433f_human YWHAH
# Remark: another data set of the same source
row,Variant,effect of a mutation on the interaction
1,S52A;S74A;S458A;S475A,disrupting interaction

# Variants of: B1
# Settings: with 1433f_human YWHAH
# Remark: another data set of the same source
row,Variant,effect of a mutation on the interaction
1,S475A,disrupting interaction
2,S74A,disrupting interaction

# Variants of: B1
# Settings: with 1433f_human YWHAH
# Remark: another data set of the same source
row,Variant,effect of a mutation on the interaction
1,S52A;T108A;S458A;S475A,decreasing interaction
